Values quoted from earlier work as cited in publication PMC7140434.

Target: emerin (Homo sapiens) (UniProt P50402)
Sequence of UniProt P50402 (P50402 whole entry): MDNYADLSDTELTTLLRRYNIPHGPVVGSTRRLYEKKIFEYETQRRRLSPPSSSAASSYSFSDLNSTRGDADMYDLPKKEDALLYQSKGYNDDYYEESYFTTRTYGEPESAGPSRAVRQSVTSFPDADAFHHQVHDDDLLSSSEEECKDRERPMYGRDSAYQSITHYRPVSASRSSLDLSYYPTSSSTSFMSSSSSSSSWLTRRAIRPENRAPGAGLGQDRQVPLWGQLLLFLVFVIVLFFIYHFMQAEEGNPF

Kd: 7.3 µM
Substance: HDAC3 (from UniProt O15379)
